# Experiments:
# [1] = tested on: McA-RH7777 cells stably expressing human apoB-100 and human apoC-III (A18-C3); assay type: cell-based; details: for effect on EPA-induced lipid degradation (CLD turnover): cells silenced, transfected or pre-treated, then EPA 0.4 mM, 6 h
# Protocol: (§1) In certain non-limiting examples described herein, McA-RH7777 cells stably expressing human apoB-100 and human apoC-III (designated A18-C3) were used for the studies. […] In addition, these studies, particularly those concerning EPA- or DHA-triggered lysosomal motility and CLD degradation, were also performed using primary rat hepatocytes. Transfection of plasmids encoding proteins of interest, or transfection of siRNA specific for silencing target gene expression, was achieved using the FuGENE HP Extreme reagent (Roche). Representative gene silencing siRNA sequences, which are not meant to be limiting, are described in Table 1, and plasmids encoding proteins of interest are described in Table 2. The effectiveness of siRNA silencing was verified by Western-blotting of cellular content of the target proteins, and by intracellular localization assay using siRNA-Tracker (Mirus Bioscience). Twenty-four h after plasmid transfection, or 48 h after siRNA transfection, the cells were cultured in lipid-rich media containing fetal bovine serum (20%) and OA (0.4 mM). The lipid-laden cells were switched to fresh media supplemented with OA or EPA (0.4 mM). In live imaging experiments, LipidTOX Red (Life Technologies) and LysoTracker (Life Technologies) were added to media prior to EPA treatment, to visualize lipid droplets and lysosomes, respectively. For visualizing peroxisomes, Peroxisome-GFP (Invitrogen) was introduced to the cells 24 h prior to experiments. Quantification of cell lipid contents was achieved either by direct mass measurement (HPTLC) and counting the number of lipid droplets using Image J Lipid Droplet Counter Plug-In, or indirectly by Western blot analysis of cellular content of ADRP. Secretion of apoB and TG-rich lipoprotein was determined by Western blot analysis and metabolic labeling. Mitochondrial β-oxidation was measured using MitoSOX Red (Life Technologies) in situ. Autophagic flux was determined by using Cyto-ID assay (Enzo Life Science) and by monitoring GFP-LC3 clustering in situ. Interaction of Arl8b and subunits of the HOPS complex was determined in situ by the proximity ligation assay (Olink Biosience). Cytoplasmic pH was measured using the cytosolic pHrodo indicator reagent (Invitrogen). Live imaging of fluorescent-tagged proteins was performed 1 h post-EPA treatment. Cells were also collected at the time of EPA treatment for transmission EM and tomography, as well as immuno-EM. For movies, cells were imaged at 60 sec intervals every 5 min, for a total of 30 min.
# The A18-C3 cells were cultured in DMEM (Invitrogen) supplemented with fetal bovine serum (20%), penicillin (50 U/mL), streptomycin (50 μg/mL, Invitrogen) and Geneticin/G418 (500 μg/mL, Gibco) at 37° C. in 5% CO2. Transfection was conducted when cells were 60-70% confluence. Appropriate plasmids were mixed with FuGENE HP extreme reagent (Roche Diagnostic), according to manufacturer's protocol, and incubated for 30 min. Twenty-four h after transfection, cells were switched to lipid-rich media containing OA (0.4 mM) for additional 16 h prior to imaging and biochemical analysis. In silencing experiments, appropriate siRNAs were transfected into cells using the X-treme GENE siRNA regent (Roche Diagnostic). Localization of siRNA in transfected cells in situ was carried out using the Cy5 Label IT-siRNA Tracker (Minis Bioscience #7213) according to manufacturer's protocol. Forty-eight h after transfection, cells were switched to lipid-rich media containing OA (0.4 mM) for additional 16 h prior to imaging and biochemical analysis.
# Quantification of lipid droplets was carried out using confocal and differential interface contrast (DIC) microscopy. Lipid droplets were stained with LipidTOX Red (Invitrogen) before adding OA or EPA. All images were visualized using a 63× oil immersion objective lens. Z-series stacks were acquired with 0.2 μm steps. […]
# [2] = tested on: McA-RH7777 cells (A18-C3); assay: Live imaging of lysosomal motility and lysosome-CLD interaction (kiss-and-run); assay type: cell-based, rat; details: cells silenced, transfected or pre-treated (15 min) before EPA
# Protocol: as §1
# Cells were grown on 35-mm glass bottom dishes (Ibidi GmbH München, Germany) for 16 h in DMEM supplemented with FBS (20%) and OA (0.4 mM). Cells were imaged using a Zeiss 510 META laser scanning confocal microscope with a heated CO2-controlled stage (5% CO2 at 37° C.). Images were captured at a frame-rate of 30 frame/sec using a 63×. N.A.1.4 objective. Recommended laser lines and filter combinations were used for each dye. For visualization of lipid droplets, lysosomes, mitochondria, and mitochondrial β-oxidation, the respective reagents LipidTOX Red (Invitrogen), LysoTracker (Life Technology), MitoTracker (Life Technology), MitoSox Red (Invitrogen), and Peroxisome-GFP BacMam2.0 (Invitrogen) were introduced into the cells, according to manufacturers' recommendations, prior to EPA treatment.
# Cells were cultured with lipid-rich media containing OA (0.4 mM) for 16 h. The lipid-laden cells were switched to fresh media containing EPA (0.4 mM) for 1 h, and the lysosomal movement towards lipid droplets was recorded by time-lapse microscopy. Fluorescent intensity of lysosomal signals at the periphery of selected individual lipid droplet was measured using Image J Live Intensity Profiler Plug-in^31-33 over a period of 40 sec. Quantification for each condition was carried out for 60 individual lipid droplets from three independent experiments. Constant threshold was applied to all of the images in each experiment.
Molecule,effect on EPA-induced lipid degradation (CLD turnover) [1],effect on EPA-triggered lysosomal motility / lysosomal interaction with CLD [2],"effect on lipid degradation when co-expressed with Arl8b^WT, Arl8b^Q75L or Arl8b^T34N ([1]; co-transfected cells, 6 h post-OA or -EPA)"
"Cl.N [NH4Cl, reference compound]",inhibited,,
"COC(=O)Nc1nc2ccc(C(=O)c3cccs3)cc2[nH]1 [nocodazole, reference compound]",blocked EPA-induced lipid degradation,blocks EPA-induced lysosomal movement,
"CCC/C=C/C/C=C/C=C/C=N/NN=O [Triacsin C, reference compound]",inhibited EPA-induced lipid degradation,blocked,
"FYCO1: Rab7 effector, anterograde motor adaptor, overexpressed GFP-tagged from plasmid (protein, UniProt Q9BQS8 2-1478, looked up, GFP tag) FYVE and coiled-coil …: ASTNAESQLQRIIRDLQDAVTELSKEFQEAGEPITDDSTSLHKFSYKLEYLLQFDQKEKATLLGNKKDYWDYFCACLAKVKGANDGIRFVKSISELRTSLGKGRAFIRYSLVHQRLADTLQQCFMNTKVTSDWYYARSPFLQPKLSSDIVGQLYELTEVQFDLASRGFDLDAAWPTFARRTLTTGSSAYLWKPPSRSSSMSSLVSSYLQTQEMVSNFDLNSPLNNEALEGFDEMRLELDQLEVREKQLRERMQQLDRENQELRAAVSQQGEQLQTERERGRTAAEDNVRLTCLVAELQKQWEVTQATQNTVKELQTCLQGLELGAAEKEEDYHTALRRLESMLQPLAQELEATRDSLDKKNQHLASFPGWLAMAQQKADTASDTKGRQEPIPSDAAQEMQELGEKLQALERERTKVEEVNRQQSAQLEQLVKELQLKEDARASLERLVKEMAPLQEELSGKGQEADQLWRRLQELLAHTSSWEEELAELRREKKQQQEEKELLEQEVRSLTRQLQFLETQLAQVSQHVSDLEEQKKQLIQDKDHLSQQVGMLERLAGPPGPELPVAGEKNEALVPVNSSLQEAWGKPEEEQRGLQEAQLDDTKVQEGSQEEELRQANRELEKELQNVVGRNQLLEGKLQALQADYQALQQRESAIQGSLASLEAEQASIRHLGDQMEASLLAVRKAKEAMKAQMAEKEAILQSKEGECQQLREEVEQCQQLAEARHRELRALESQCQQQTQLIEVLTAEKGQQGVGPPTDNEARELAAQLALSQAQLEVHQGEVQRLQAQVVDLQAKMRAALDDQDKVQSQLSMAEAVLREHKTLVQQLKEQNEALNRAHVQELLQCSEREGALQEERADEAQQREEELRALQEELSQAKCSSEEAQLEHAELQEQLHRANTDTAELGIQVCALTVEKERVEEALACAVQELQDAKEAASREREGLERQVAGLQQEKESLQEKLKAAKAAAGSLPGLQAQLAQAEQRAQSLQEAAHQELNTLKFQLSAEIMDYQSRLKNAGEECKSLRGQLEEQGRQLQAAEEAVEKLKATQADMGEKLSCTSNHLAECQAAMLRKDKEGAALREDLERTQKELEKATTKIQEYYNKLCQEVTNRERNDQKMLADLDDLNRTKKYLEERLIELLRDKDALWQKSDALEFQQKLSAEERWLGDTEANHCLDCKREFSWMVRRHHCRICGRIFCYYCCNNYVLSKHGGKKERCCRACFQKLSEGPGSPDSSGSGTSQGEPSPALSPASPGPQATGGQGANTDYRPPDDAVFDIITDEELCQIQESGSSLPETPTETDSLDPNAAEQDTTSTSLTPEDTEDMPVGQDSEICLLKSGELMIKVPLTVDEIASFGEGSRELFVRSSTYSLIPITVAEAGLTISWVFSSDPKSISFSVVFQEAEDTPLDQCKVLIPTTRCNSHKENIQGQLKVRTPGIYMLIFDNTFSRFVSKKVFYHLTVDRPVIYDGSDFL",adversely blocked EPA-induced lipid degradation,blocks EPA-triggered lysosomal interaction with LDs,
"RILP: Rab7 effector, retrograde motor adaptor, overexpressed GFP-tagged from plasmid (protein, UniProt Q96NA2 1-401, looked up, GFP tag) Rab-interacting lysosomal …: MEPRRAAPGVPGWGSREAAGSASAAELVYHLAGALGTELQDLARRFGPEAAAGLVPLVVRALELLEQAAVGPAPDSLQVSAQPAEQELRRLREENERLRRELRAGPQEERALLRQLKEVTDRQRDELRAHNRDLRQRGQETEALQEQLQRLLLVNAELRHKLAAMQTQLRAAQDRERERQQPGEAATPQAKERARGQAGRPGHQHGQEPEWATAGAGAPGNPEDPAEAAQQLGRPSEAGQCRFSREEFEQILQERNELKAKVFLLKEELAYFQRELLTDHRVPGLLLEAMKVAVRKQRKKIKAKMLGTPEEAESSEDEAGPWILLSDDKGDHPPPPESKIQSFFGLWYRGKAESSEDETSSPAPSKLGGEEEAQPQSPAPDPPCSALHEHLCLGASAAPEA",adversely blocked EPA-induced lipid degradation,blocks EPA-triggered lysosomal interaction with LDs,
Vps41: HOPS subunit overexpressed from plasmid (GFP-tagged) (protein) MAEAEEQETESLEESTDESEEESEEEPKLKYERLSNGVTEILQKDAASCMTVHDKFLALGTHYGKVYLLDVQGNITQKFDVSPVKINQISLDESGEHMGVCSEDGKLQVFGLYSGEEFHETFDCPIKIVAVHPQFVRSSCKQFVTGGKKLLLFERTWMNRWKSSVLHEGEGNIRSVKWRGHLIAWANNMGVKIFDITSKQRITNVPRDDISLRPDMYPCSLCWKDAVTLIIGWGTSIKICSVKERHASEMRDLPSRYVEIVSQFETEFYISGLAPLCDQLVVLSYVKEVSEKTEREYCARPRLDIIQPLPETCEEISSDALTVRGFQENECRDYHLEYSEGESLFYVVSPRDVVVAKERDQDDHIDWLLEKKKYEEALMAAEISHRNIKRHKILEIGLAYVNHLVERGEYDMAARKCQKILGKNASLWEYEVYKFKEIGQLKAISPYLPRGDPVLKPLIYEMILHEFLESDYEGFATLIREWPGDLYNNSVIVQAVRDHLKKDSQNKTLLKTLAELYTYDKNYGNALEIYLTLRHKDVFQLIHKHNLFSSIKDKIVLLMDFDSEKAVDMLLDNEDKISIKKVVEELEDRPELQHVYLHKLFKRDHHKGQRYHEKQISLYAEYDRPNLLPFLRDSTHCPLEKALEICQQRNFVEETVYLLSRMGNSRSALKMIMEELHDVDKAIEFAKEQDDGELWEDLILYSIDKPPFITGLLNNIGTHVDPILLIHRIKEGMEIPNLRDSLVKILQDYNLQILLREGCKKILVADSLSLLKKMHRTQMKGVLVDEENICESCLSPILPTDAAKPFSVVVFHCRHMFHKECLPMPSLNAPAQYCNICSAKNRGPGSAILEMKK,block lipid degradation,enhanced lysosomal-CLD interaction,invariably blocks lipid degradation

# Source: patent publication US11298402B2, “Lysosomal degradation of lipids and proteins and method of use thereof” (University of Ottawa, priority 2015, dated 2022)
